{
  "source": "paper PMC4609301",
  "about": "(Molecular cell, 2015)",
  "target": "the molecule itself",
  "experiment": "phase separation",
  "data": [
    {"protein": "FUS low complexity N-terminal domain (residues 1-163) (domain or fragment, human, UniProt P35637 1-163, looked up) MASNDYTQQATQSYGAYPTQPGQGYSQQSSQPYGQQSYSGYSQSTDTSGYGQSSYSSYGQSQNTGYGTQSTPQGYGSTGGYGSSQSSQSSYGQQSSYPGYGQQPAPSSTSGSYGSSSQSSSYGQPQSGSYSQQPSYGGQQQSYGQQQSYNPPQGYGQQNQYNS", "values": [
      {"measurement": "binding result", "value": "binds"}
    ]}
  ]
}
